Assay results published in US12576024B2, “Compositions comprising Propionibacterium acnes bacteriophages for treating acne” (priority 2017, dated 2026).
“Also recorded” adds a separate entry of the source.

System: P. acnes biofilms
Assay: Screen of enzymes that degrade P. acnes biofilms (crystal violet)
Format: cell-based
Conditions: enzymes 0.01 mg/mL, 30° C., 30 mins
Experimental: FIG. 4. A screen to select enzymes that can degrade P. acnes biofilms. P. acnes was grown in polystyrene microtiter plates to stimulate biofilm production. Enzymes were added at 0.01 mg/mL to the wells and incubated at 30° C. for 30 mins. The degraded biofilm was washed away with phosphate buffered saline (PBS), and the residual biofilm in each well was quantified by staining with crystal violet and recording absorbance at 590 nm.
Without being bound by any scientific theory, we hypothesized that biofilms might present a significant barrier to phage killing of sessile P. acnes cells. […] In order to determine whether biofilm degradation would improve phage killing, a number of enzymes was screened to find a BDE specific for P. acnes. The screen comprised three classes of enzymes that might degrade types of materials that may be found in biofilms: DNA, polysaccharides, and proteins.

B1: dispersin: a glycoside hydrolase from Aggregatibacter actinomycetemcomitans, biofilm degrading enzyme (protein)
chain: MNCCVKGNSIYPQKTSTKQTGLMLDIARHFYSPEVIKSFIDTISLSGGNFLHLHFSDHENYAIESHLLNQRAENAVQGKDGIYINPYTGKPFLSYRQLDDIKAYAKAKGIELIPELDSPNHMTAIFKLVQKDRGVKYLQGLKSRQVDDEIDITNADSITFMQSLMSEVIDIFGDTSQHFHIGGDEFGYSVESNHEFITYANKLSYFLEKKGLKTRMWNDGLIKNTFEQINPNIEITYWSYDGDTQDKNEAAERRDMRVSLPELLAKGFTVLNYNSYYLYIVPKASPTFSQDAAFAAKDVIKNWDLGVWDGRNTKNRVQNTHEIAGAALSIWGEDAKALKDETIQKNTKSLLEAVIHKTNGDE
modifications: Aggregatibacter actinomycetemcomitans
notes: a glycoside hydrolase from Aggregatibacter actinomycetemcomitans, biofilm degrading enzyme
P. acnes biofilm degradation (residual biofilm, absorbance at 590 nm): best glycoside depolymerase amongst those tested; also recorded: best rates of biofilm degradation

B2: proteinase K: protease screened as P. acnes biofilm degrading enzyme (protein, UniProt P06873 106-384, looked up)
Proteinase K: AAQTNAPWGLARISSTSPGTSTYYYDESAGQGSCVYVIDTGIEASHPEFEGRAQMVKTYYYSSRDGNGHGTHCAGTVGSRTYGVAKKTQLFGVKVLDDNGSGQYSTIIAGMDFVASDKNNRNCPKGVVASLSLGGGYSSSVNSAAARLQSSGVMVAVAAGNNNADARNYSPASEPSVCTVGASDRYDRRSSFSNYGSVLDIFGPGTSILSTWIGGSTRSISGTSMATPHVAGLAAYLMTLGKTTAASACRYIADTANKGDLSNIPFGTVNLLAYNNYQA
P. acnes biofilm degradation (residual biofilm, absorbance at 590 nm): good activity
